Target: T1, receptor-binding domain (RBD) of the SARS-CoV-2 spike (S) protein (SARS-CoV-2, UniProt P0DTC2)
T1 construct: not shown: His6, C-terminal, kept
Test: BLI
Details: both partners purified

B1: CC12.1 Fab (Fab, V domains shown)
VH: EVQLVESGGGLIQPGGSLRLSCAASGLTVSSNYMSWVRQAPGKGLEWVSVIYSGGSTFYADSVKGRFTISRDNSKNTLYLQMNSLRAEDTAVYYCARDLDVYGLDVWGQGTTVTVSS
VL: DIVMTQSPSFLSASVGDRVTITCRASQGISSYLAWYQQKPGKAPKLLIYAASTLQSGVPSRFSGSGSGTEFTLTISSLQPEDFATYYCQQLNSYPPKFTFGPGTKVEIK
notes: also called Fab CC12.1
Kd: 17 nM
